Measurements: patent US20220160939A1, “SELF-ASSEMBLING PEPTIDES AS BRONCHIAL OBSTRUCTION AGENTS” (3-D MATRIX, LTD., priority 2014, published 2022)

Assays:
Format in all cases: physicochemical
[1] = Appearance of 1.5% peptide solutions with various salts at room temperature; settings: for Appearance: room temperature
Procedure: The effect of salt ionic strength level on the properties of peptide solutions was evaluated to identify optimized salt ionic strength levels for the peptides as described herein. Increasing the salt ionic strength level of PuraMatrix® (SEQ ID NO:1) and other peptides may generally improve its function and mechanical strength for various clinical applications. To adjust the salt ionic strength of the peptide solutions by way of example, various salt buffer solutions including NaCl, KCl, MgCl2, CaCl2 and DPBS (10×) were added to 2 mL of 1.5% peptide solutions.

[2] = Rheological properties of peptide solutions at adjusted salt ionic strength
Procedure: Based on the visual observation of the effect of salt ionic strength on the properties of the peptide solutions, the effect on the rheological properties of the peptide solutions after adjusting their ionic strength level with NaCl to 0.7 M (PuraMatrix® (SEQ ID NO:1)), 0.2 M (KLD12 (SEQ ID NO:3)) or 0.02 M (IEIK13 (SEQ ID NO:2)), which is closely below the critical ionic strength at which each peptide becomes cloudy, was evaluated. If the ionic strength levels with NaCl of peptide solutions are higher than 0.9 M (PuraMatrix® (SEQ ID NO:1)), 0.3 M (KLD12 (SEQ ID NO:3)) or 0.03 M (IEIK13 (SEQ ID NO:2)), the peptide solutions begin phase separation becoming cloudy and weak. The rheological property of PuraMatrix® (SEQ ID NO:1), KLD12 (SEQ ID NO:3) and IEIK13 (SEQ ID NO:2) solutions was higher after adjusting their ionic strength level with NaCl to 0.7 M (PuraMatrix® (SEQ ID NO:1)), 0.2 M (KLD12 (SEQ ID NO:3)) or 0.02 M (IEIK13 (SEQ ID NO:2)). The results are shown in FIG. 10 for KLD12 (SEQ ID NO:3) 1%, FIG. 11 for IEIK13 (SEQ ID NO:2) 1%, and FIG. 12 for PuraMatrix® (SEQ ID NO:1) 1%, respectively. Frequency sweep tests were performed from 1 rad/s to 10 rad/s at 1 Pa.
Based on the results of the effect on the rheological properties of the peptide solutions after adjusting their ionic strength level with NaCl to 0.7 M (PuraMatrix® (SEQ ID NO:1)), 0.2 M (KLD12 (SEQ ID NO:3)) or 0.02 M (IEIK13 (SEQ ID NO:2)), the effect on the rheological properties of the peptide solution at various salt ionic strengths was evaluated. […] The results are shown in FIG. 13 for PuraMatrix® (SEQ ID NO:1) 1% solutions and in FIG. 14 for IEIK13 (SEQ ID NO:2) 1% solutions. Frequency sweep tests were performed from 1 rad/sec to 10 rad/sec at 1 Pa and the storage modulus at 1 rad/sec was selected for data.
(§1) Based on the results of the effect on the rheological properties of the peptide solutions and hydrogels after adjusting their ionic strength levels with NaCl, the effect of various salts (KCl, MgCl2, and CaCl2) was also evaluated. The rheological property of PuraMatrix® (SEQ ID NO:1) solutions increases with ionic strength adjustment at 0.15 M of all the salts. Increases of the rheological property of PuraMatrix® (SEQ ID NO:1) solutions with various salts were not predominantly different. However, increases of the rheological property of PuraMatrix® (SEQ ID NO:1) solutions may vary depending on the salting out constant, K of each salt. Constant K is a constant in Cohen's equation: log S=B−KI, where S is solubility, B is idealized solubility, K is salting out constant, and I is ionic strength. With a higher value of constant K and ionic strength of salts, solubility of the peptide may decrease resulting in strong peptide self-assembly with increased hydrophobic effect and higher rheological properties of the peptide solution. The constant K of NaCl may be higher than the other salts. […] The results are shown in FIG. 17 for PuraMatrix® (SEQ ID NO:1) 1% solution before DMEM treatment, and in FIG. 18 for PuraMatrix® (SEQ ID NO:1) 1% hydrogels after DMEM treatment for 10 min Frequency sweep tests were performed from 1 rad/sec to 10 rad/sec at 1 Pa and the storage modulus at 1 rad/sec was selected for data.

[3] = Rheological properties of ionic strength adjusted hydrogels after DMEM treatment for 10 min; settings: 1% hydrogels; DMEM treatment for 10 min
Procedure: Based on the results of the effect on the rheological properties of the peptide solutions after adjusting their ionic strength levels, the effect on the rheological properties of the peptide hydrogels after DMEM treatment for 10 min was evaluated. […] The results are shown in FIG. 15 for PuraMatrix® (SEQ ID NO:1) 1% hydrogels and in FIG. 16 for IEIK13 (SEQ ID NO:2) 1% hydrogels, both after DMEM treatment for 10 min. Frequency sweep tests were performed from 1 rad/sec to 10 rad/sec at 1 Pa and the storage modulus at 1 rad/sec was selected for data.
as §1

Arg-Ala-Asp-Ala-Arg-Ala-Asp-Ala-Arg-Ala-Asp-Ala-Arg-Ala-Asp-Ala [PuraMatrix ®]
critical salt ionic strengths at which peptides become cloudy [1]: 0.9˜1.2 M
Appearance ([1]; CaCl2 0 M, ionic strength 0 M, conc. 1.5%): Clear, thick gel
Appearance ([1]; CaCl2 0.05 M, ionic strength 0.15 M, conc. 1.48%): Clear, thick, stiffer gel
Appearance ([1]; CaCl2 0.1 M, ionic strength 0.3 M, conc. 1.45%): Clear, thick, stiffer gel
Appearance ([1]; CaCl2 0.15 M, ionic strength 0.45 M, conc. 1.43%): Clear, thick, stiffer gel
Appearance ([1]; CaCl2 0.2 M, ionic strength 0.6 M, conc. 1.4%): Clear, thick, stiffer gel
Appearance ([1]; CaCl2 0.25 M, ionic strength 0.75 M, conc. 1.38%): Clear, thick, stiffer gel
Appearance ([1]; CaCl2 0.3 M, ionic strength 0.9 M, conc. 1.35%): Clear, thick, stiffer gel
Appearance ([1]; CaCl2 0.35 M, ionic strength 1.05 M, conc. 1.32%): Clear, thick, stiffer gel
Appearance ([1]; CaCl2 0.383 M, ionic strength 1.15 M, conc. 1.31%): Clear, thick, stiffer gel
Appearance ([1]; CaCl2 0.4 M, ionic strength 1.2 M, conc. 1.3%): Slightly cloudy, thick, stiffer gel
Appearance ([1]; CaCl2 0.417 M, ionic strength 1.25 M, conc. 1.29%): Slightly cloudy, brittle gel
Appearance ([1]; CaCl2 0.433 M, ionic strength 1.3 M, conc. 1.28%): Cloudy, phase-separated
Appearance ([1]; DPBS (pH 3.2) 0 M, ionic strength 0 M, conc. 1.5%): Clear, thick gel
Appearance ([1]; DPBS (pH 3.2) 0.15 M, ionic strength 0.15 M, conc. 1.35%): Clear, thick, stiffer gel
Appearance ([1]; DPBS (pH 3.2) 0.3 M, ionic strength 0.3 M, conc. 1.2%): Clear, thick, stiffer gel
Appearance ([1]; DPBS (pH 3.2) 0.45 M, ionic strength 0.45 M, conc. 1.05%): Clear, thick, stiffer gel
Appearance ([1]; DPBS (pH 3.2) 0.6 M, ionic strength 0.6 M, conc. 0.9%): Clear, thick, stiffer gel
Appearance ([1]; DPBS (pH 3.2) 0.75 M, ionic strength 0.75 M, conc. 0.75%): Clear, thick, stiffer gel
Appearance ([1]; DPBS (pH 3.2) 0.9 M, ionic strength 0.9 M, conc. 0.6%): Clear, thick, stiffer gel
Appearance ([1]; DPBS (pH 3.2) 0.95 M, ionic strength 0.95 M, conc. 0.55%): Slightly cloudy, brittle gel
Appearance ([1]; DPBS (pH 3.2) 1.0 M, ionic strength 1.0 M, conc. 0.5%): Cloudy, phase-separated
Appearance ([1]; KCl 0 M, ionic strength 0 M, conc. 1.5%): Clear, thick gel
Appearance ([1]; KCl 0.15 M, ionic strength 0.15 M, conc. 1.43%): Clear, thick, stiffer gel
Appearance ([1]; KCl 0.3 M, ionic strength 0.3 M, conc. 1.35%): Clear, thick, stiffer gel
Appearance ([1]; KCl 0.45 M, ionic strength 0.45 M, conc. 1.27%): Clear, thick, stiffer gel
Appearance ([1]; KCl 0.6 M, ionic strength 0.6 M, conc. 1.2%): Clear, thick, stiffer gel
Appearance ([1]; KCl 0.75 M, ionic strength 0.75 M, conc. 1.13%): Clear, thick, stiffer gel
Appearance ([1]; KCl 0.9 M, ionic strength 0.9 M, conc. 1.05%): Clear, thick, stiffer gel
Appearance ([1]; KCl 0.95 M, ionic strength 0.95 M, conc. 1.03%): Clear, thick, stiffer gel
Appearance ([1]; KCl 1.0 M, ionic strength 1.0 M, conc. 1.0%): Clear, thick, stiffer gel
Appearance ([1]; KCl 1.05 M, ionic strength 1.05 M, conc. 0.98%): Slightly cloudy, thick, stiffer gel
Appearance ([1]; KCl 1.1 M, ionic strength 1.1 M, conc. 0.95%): Slightly cloudy, brittle gel
Appearance ([1]; KCl 1.15 M, ionic strength 1.15 M, conc. 0.93%): Cloudy, phase-separated
Appearance ([1]; MgCl2 0 M, ionic strength 0 M, conc. 1.5%): Clear, thick gel
Appearance ([1]; MgCl2 0.05 M, ionic strength 0.15 M, conc. 1.48%): Clear, thick, stiffer gel
Appearance ([1]; MgCl2 0.1 M, ionic strength 0.3 M, conc. 1.45%): Clear, thick, stiffer gel
Appearance ([1]; MgCl2 0.15 M, ionic strength 0.45 M, conc. 1.43%): Clear, thick, stiffer gel
Appearance ([1]; MgCl2 0.2 M, ionic strength 0.6 M, conc. 1.4%): Clear, thick, stiffer gel
Appearance ([1]; MgCl2 0.25 M, ionic strength 0.75 M, conc. 1.38%): Clear, thick, stiffer gel
Appearance ([1]; MgCl2 0.3 M, ionic strength 0.9 M, conc. 1.35%): Clear, thick, stiffer gel
Appearance ([1]; MgCl2 0.35 M, ionic strength 1.05 M, conc. 1.32%): Clear, thick, stiffer gel
Appearance ([1]; MgCl2 0.383 M, ionic strength 1.15 M, conc. 1.31%): Clear, thick, stiffer gel
Appearance ([1]; MgCl2 0.4 M, ionic strength 1.2 M, conc. 1.3%): Slightly cloudy, thick, stiffer gel
Appearance ([1]; MgCl2 0.417 M, ionic strength 1.25 M, conc. 1.29%): Slightly cloudy, brittle gel
Appearance ([1]; MgCl2 0.433 M, ionic strength 1.3 M, conc. 1.28%): Cloudy, phase-separated
Appearance ([1]; NaCl 0 M, ionic strength 0 M, conc. 1.5%): Clear, thick gel
Appearance ([1]; NaCl 0.15 M, ionic strength 0.15 M, conc. 1.43%): Clear, thick, stiffer gel
Appearance ([1]; NaCl 0.3 M, ionic strength 0.3 M, conc. 1.35%): Clear, thick, stiffer gel
Appearance ([1]; NaCl 0.45 M, ionic strength 0.45 M, conc. 1.27%): Clear, thick, stiffer gel
Appearance ([1]; NaCl 0.6 M, ionic strength 0.6 M, conc. 1.2%): Clear, thick, stiffer gel
Appearance ([1]; NaCl 0.75 M, ionic strength 0.75 M, conc. 1.13%): Clear, thick, stiffer gel
Appearance ([1]; NaCl 0.8 M, ionic strength 0.8 M, conc. 1.10%): Clear, thick, stiffer gel
Appearance ([1]; NaCl 0.85 M, ionic strength 0.85 M, conc. 1.08%): Clear, thick, stiffer gel
Appearance ([1]; NaCl 0.9 M, ionic strength 0.9 M, conc. 1.05%): Slightly cloudy, brittle gel
Appearance ([1]; NaCl 0.95 M, ionic strength 0.95 M, conc. 1.03%): Cloudy, phase-separated
Appearance ([1]; NaCl 1.0 M, ionic strength 1.0 M, conc. 1.0%): Cloudy, phase-separated
salt ionic strength increase that did not change the clear color, while apparent stiffness increased ([1]; depending on different salts, 1.5% peptide solutions): 0.85˜1.15 M
rheological property of solutions with ionic strength adjustment ([2]; 0.15 M ionic strength of all the salts (NaCl, KCl, MgCl2, CaCl2), 1% solution): increases
rheological property of solutions with NaCl versus KCl and CaCl2 ([2]; 0.15 M ionic strength, 1% solution): slightly higher
ionic strength up to which the rheological property of 1% solutions increases (decreases above) ([2]; 1% solutions, storage modulus at 1 rad/sec): up to 0.7 M
ionic strength level with NaCl above which solutions begin phase separation becoming cloudy and weak ([2]; NaCl): higher than 0.9 M
rheological property after adjusting ionic strength level with NaCl ([2]; NaCl to 0.7 M (PuraMatrix), 0.2 M (KLD12) or 0.02 M (IEIK13), 1% solutions): higher
ionic strength above which the rheological property of hydrogels after DMEM treatment decreases [3]: above 0.7 M
ionic strength up to which the rheological property of hydrogels after DMEM treatment increased [3]: up to 0.7 M
